Tests used:
[1] = anti-GFP Western band intensity, CHO membranes; conditions: glycan lost; control: wild-type OCTN2
[2] = confocal GFP vs Bodipy-ceramide, MetaMorph; conditions: glycan lost; control: wild-type OCTN2
[3] = Michaelis-Menten kinetics after 16 h tunicamycin, CHO; conditions: glycan lost; control: untreated cells
[4] = carnitine 0.5–100 µM uptake, Michaelis-Menten fit, CHO; conditions: glycan lost; control: wild-type OCTN2

| Protein | expression_or_secretion [1] | localisation_or_trafficking, other: percent of transporters at plasma membrane [2] | other: kinetic parameters of carnitine transport [3] | other: Vmax of carnitine transport [4] |
| --- | --- | --- | --- | --- |
| OCTN2 carnitine transporter: N57/64/91Q (protein) parent chain: MRDYDEVTAFLGEWGPFQRLIFFLLSASIIPNGFTGLSSVFLIATPEHRCRVPDAANLSSAWRNHTVPLRLRDGREVPHSCRRYRLATIANFSALGLEPGRDVDLGQLEQESCLDGWEFSQDVYLSTIVTEWNLVCEDDWKAPLTISLFFVGVLLGSFISGQLSDRFGRKNVLFVTMGMQTGFSFLQIFSKNFEMFVVLFVLVGMGQISNYVAAFVLGTEILGKSVRIIFSTLGVCIFYAFGYMVLPLFAYFIRDWRMLLVALTMPGVLCVALWWFIPESPRWLISQGRFEEAEVIIRKAAKANGIVVPSTIFDPSELQDLSSKKQQSHNILDLLRTWNIRMVTIMSIMLWMTISVGYFGLSLDTPNLHGDIFVNCFLSAMVEVPAYVLAWLLLQYLPRRYSMATALFLGGSVLLFMQLVPPDLYYLATVLVMVGKFGVTAAFSMVYVYTAELYPTVVRNMGVGVSSTASRLGSILSPYFVYLGAYDRFLPYILMGSLTILTAILTLFLPESFGTPLPDTIDQMLRVKGMKHRKTPSHTRMLKDGQERPTILKSTAF | decreases | abolishes | – | – |
| OCTN2 carnitine transporter: N57/91Q (protein) parent chain: MRDYDEVTAFLGEWGPFQRLIFFLLSASIIPNGFTGLSSVFLIATPEHRCRVPDAANLSSAWRNHTVPLRLRDGREVPHSCRRYRLATIANFSALGLEPGRDVDLGQLEQESCLDGWEFSQDVYLSTIVTEWNLVCEDDWKAPLTISLFFVGVLLGSFISGQLSDRFGRKNVLFVTMGMQTGFSFLQIFSKNFEMFVVLFVLVGMGQISNYVAAFVLGTEILGKSVRIIFSTLGVCIFYAFGYMVLPLFAYFIRDWRMLLVALTMPGVLCVALWWFIPESPRWLISQGRFEEAEVIIRKAAKANGIVVPSTIFDPSELQDLSSKKQQSHNILDLLRTWNIRMVTIMSIMLWMTISVGYFGLSLDTPNLHGDIFVNCFLSAMVEVPAYVLAWLLLQYLPRRYSMATALFLGGSVLLFMQLVPPDLYYLATVLVMVGKFGVTAAFSMVYVYTAELYPTVVRNMGVGVSSTASRLGSILSPYFVYLGAYDRFLPYILMGSLTILTAILTLFLPESFGTPLPDTIDQMLRVKGMKHRKTPSHTRMLKDGQERPTILKSTAF | – | decreases | – | – |
| OCTN2 carnitine transporter: N57Q/N64Q (protein) parent chain: MRDYDEVTAFLGEWGPFQRLIFFLLSASIIPNGFTGLSSVFLIATPEHRCRVPDAANLSSAWRNHTVPLRLRDGREVPHSCRRYRLATIANFSALGLEPGRDVDLGQLEQESCLDGWEFSQDVYLSTIVTEWNLVCEDDWKAPLTISLFFVGVLLGSFISGQLSDRFGRKNVLFVTMGMQTGFSFLQIFSKNFEMFVVLFVLVGMGQISNYVAAFVLGTEILGKSVRIIFSTLGVCIFYAFGYMVLPLFAYFIRDWRMLLVALTMPGVLCVALWWFIPESPRWLISQGRFEEAEVIIRKAAKANGIVVPSTIFDPSELQDLSSKKQQSHNILDLLRTWNIRMVTIMSIMLWMTISVGYFGLSLDTPNLHGDIFVNCFLSAMVEVPAYVLAWLLLQYLPRRYSMATALFLGGSVLLFMQLVPPDLYYLATVLVMVGKFGVTAAFSMVYVYTAELYPTVVRNMGVGVSSTASRLGSILSPYFVYLGAYDRFLPYILMGSLTILTAILTLFLPESFGTPLPDTIDQMLRVKGMKHRKTPSHTRMLKDGQERPTILKSTAF | no change | – | – | – |
| OCTN2 carnitine transporter: tunicamycin (0.5 µg/ml) (protein) parent chain: MRDYDEVTAFLGEWGPFQRLIFFLLSASIIPNGFTGLSSVFLIATPEHRCRVPDAANLSSAWRNHTVPLRLRDGREVPHSCRRYRLATIANFSALGLEPGRDVDLGQLEQESCLDGWEFSQDVYLSTIVTEWNLVCEDDWKAPLTISLFFVGVLLGSFISGQLSDRFGRKNVLFVTMGMQTGFSFLQIFSKNFEMFVVLFVLVGMGQISNYVAAFVLGTEILGKSVRIIFSTLGVCIFYAFGYMVLPLFAYFIRDWRMLLVALTMPGVLCVALWWFIPESPRWLISQGRFEEAEVIIRKAAKANGIVVPSTIFDPSELQDLSSKKQQSHNILDLLRTWNIRMVTIMSIMLWMTISVGYFGLSLDTPNLHGDIFVNCFLSAMVEVPAYVLAWLLLQYLPRRYSMATALFLGGSVLLFMQLVPPDLYYLATVLVMVGKFGVTAAFSMVYVYTAELYPTVVRNMGVGVSSTASRLGSILSPYFVYLGAYDRFLPYILMGSLTILTAILTLFLPESFGTPLPDTIDQMLRVKGMKHRKTPSHTRMLKDGQERPTILKSTAF | – | – | no change | – |
| OCTN2 carnitine transporter: N64/91Q (protein) parent chain: MRDYDEVTAFLGEWGPFQRLIFFLLSASIIPNGFTGLSSVFLIATPEHRCRVPDAANLSSAWRNHTVPLRLRDGREVPHSCRRYRLATIANFSALGLEPGRDVDLGQLEQESCLDGWEFSQDVYLSTIVTEWNLVCEDDWKAPLTISLFFVGVLLGSFISGQLSDRFGRKNVLFVTMGMQTGFSFLQIFSKNFEMFVVLFVLVGMGQISNYVAAFVLGTEILGKSVRIIFSTLGVCIFYAFGYMVLPLFAYFIRDWRMLLVALTMPGVLCVALWWFIPESPRWLISQGRFEEAEVIIRKAAKANGIVVPSTIFDPSELQDLSSKKQQSHNILDLLRTWNIRMVTIMSIMLWMTISVGYFGLSLDTPNLHGDIFVNCFLSAMVEVPAYVLAWLLLQYLPRRYSMATALFLGGSVLLFMQLVPPDLYYLATVLVMVGKFGVTAAFSMVYVYTAELYPTVVRNMGVGVSSTASRLGSILSPYFVYLGAYDRFLPYILMGSLTILTAILTLFLPESFGTPLPDTIDQMLRVKGMKHRKTPSHTRMLKDGQERPTILKSTAF | decreases | decreases | – | decreases |
